Measured values taken from the supplement of paper PMC12764529.
± gives the half width of the 95% confidence interval.

assay: folding stability dG unfold (combined trypsin and chymotrypsin); higher = more stable
Summary of the method: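 Mini-proteins designed to be under 80 residues and free of cysteine were carried in a PA-tagged cDNA display construct and digested with trypsin and with chymotrypsin. Each protease was applied at 11 threefold-diluted concentrations, alongside a no-protease condition, before sequencing. K50 came from Bayesian fitting of the sequencing counts, and unfolding free energy was obtained by comparing it with a sequence-predicted unfolded-state K50 and a shared folded-state K50, for each protease separately or for both together. Designs were retained only if their AlphaFold2 dimer inter-PAE exceeded 15.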

Going from “SAGLTAKITSVTEENGTLTVTVEVTAPDGSTFTFTATFRIEPAPAPPVKVTVETDADGNVTVTVETLDSAGG [r19_172_TrROS_Hall]” to “SAGGMTVTVPREGPVTEEDVEKIAAELAAQGLKEVPLVVIETEKGSLPDGRPTELVRERTYYYEYPESAGGS [r16_44_JUSTAS]”, the “folding stability dG unfold” value falls from > 6 kcal/mol to < -1 kcal/mol.

Compared with “SAGGSAGGSAGGSMPVEILEVEEADPETGIRTYKLRDPVIGVESTIEGPLSPEEIEALLSAGGSAGGSAGGS [r4_228_JUSTAS]”, “SAGGSSIPRALLEAMPPDAELEFEDPSSNVRIKVTRLGPDRLEITTTVYPPGPDTPVSSETTTDPLASAGGS [r16_163_JUSTAS]” is higher in “folding stability dG unfold” value: < -1 kcal/mol for the first, -0.124 ± 0.28 kcal/mol for the second.

First: SAGGSAGGSSMPLTVEELLASVGPDKTATVLVPPGTSIPANITPLGTEPEGGWRTFAIPASLVSAGGSAGGS [r12_356_JUSTAS]
Second: SAGGSTTITVPEEELEKKTGIPLGTPPEEVARKLDPVAKVTVTAVSSEKGPNGEPKRTVTFEVTPPQLSAGG [r13_723_JUSTAS]
The “folding stability dG unfold” value of the first is higher: -0.971 ± 0.25 kcal/mol for the first, < -1 kcal/mol for the second.

“SAGGSAGGSAGGMVRFPDGKEVETESEEELEELLKGVPVEEITIEDPEEKGEKKIPVKLSAGGSAGGSAGGS [r10_1191_JUSTAS]” and “SAGGSAGGAEITIELTEDGTLRITVDGKKLEIRLEPAPPPVEVKTERVLDPDTDELTTRTETVLSAGGSAGG [r6_34_TrROS_Hall]” are within error of each other in “folding stability dG unfold” value: -0.942 ± 0.48 kcal/mol for the first, -0.548 ± 0.43 kcal/mol for the second.

Going from “SAGGSAGGMVTVELPGLPTPEEARARAEEVVAAIVAAGHPGEEVTLTVVYPGSGAAETFTVPLASAGGSAGG [r6_238_JUSTAS]” to “SAGMVTFIDTTPGKAVVAVEDPATGTSRTIELDLDSPDGRPASLEEIKKVVEELVKEERPDLTVDVKLASAG [r5_293_JUSTAS]”, the “folding stability dG unfold” value falls from -0.328 ± 0.22 kcal/mol to < -1 kcal/mol.

“SAGGSAGGSAGSLPEKLKEAFPDLGVTVTSVDPSGTVTVEVDGPEEVKEKVEKAVAEILKSAGGSAGGSAGG [r11_418_JUSTAS]” and “SAGGSAGGSAGGSKKTLPFPSVEDVVKYLKDLGLKDVKVDLPPGDLTINLDEIEEALKESAGGSAGGSAGGS [r4_101_TrMRF]” cannot be ordered by “folding stability dG unfold” value: < -1 kcal/mol for the first, < -1 kcal/mol for the second.

First: SAGGSAGGSMKPEVVEEIIKKAEEEGYEIDSVTVNPETNVPVIHFNWPSPELAEKDPELREAASAGGSAGGS [r12_482_TrMRF]
Second: SAGGSAGGSAGEEIIRAAKEAAKAGKKVRIVVPKGMSAEEIAKKLAEELNIEKVEVYELPSAGGSAGGSAGG [r11_524_TrROS_Hall]
The “folding stability dG unfold” value of the first is lower: < -1 kcal/mol for the first, -0.142 ± 0.11 kcal/mol for the second.

“SAGGSAGGSAGGIEELAKKYPNIKIVEVKTVKVTETNKDGKKTEKTKTEIKIYKDGEEISAGGSAGGSAGGS [r10_0_TrROS_Hall]” and “SAGGSAGGSAGGVVKFPDDVLIERVETLPDGTVKIKVYKRIPGKGSPVEEIEFEDPGSSSAGGSAGGSAGGS [r10_934_JUSTAS]” cannot be ordered by “folding stability dG unfold” value: < -1 kcal/mol for the first, < -1 kcal/mol for the second.

Going from “SAGGMNPDNFKPVRTYTLPFDGHKIEVEVWEPPNGNPLIPIQLEDDNGKPKGPQWIPPDQIDENGKILSAGG [r13_447_TrROS]” to “SAGGSETITIEIEINGAKIKLTFTKNEDGTLTVTAEITLPNGKKLRVTMEFDKKTKEWKITSIEPVSAGGSA [r2_402_TrROS_Hall]”, the “folding stability dG unfold” value rises from -0.213 ± 0.28 kcal/mol to > 6 kcal/mol.

Compared with “SYRPITIQMPSPEDLKKLEEAFEDDGFENVNIHRDPPGWHTITITQKGPPEQLQDRIREAFDENGFQIQPSA [r9_1003_TrROS]”, “SAKIPAEEIAEEIAENFGFEPVEVDEIDPDEGKIIIRFPGWQIEVEVDPEDGEIEIEMEFYDPEDGKPFSAG [r14_270_TrROS]” is higher in “folding stability dG unfold” value: < -1 kcal/mol for the first, -0.0386 ± 0.18 kcal/mol for the second.

First: SAGGSAGGSAGREEVEEAIRAGETVTLEEKSPEGVIPVITVRAEFPDPDKVLVETEVKPLSAGGSAGGSAGG [r11_710_JUSTAS]
Second: SAGGSAGGSAGGMNTNPKFVSEEDDKEIYREYNPSTGKETYIIYYPKPNTKKIVPPELISAGGSAGGSAGGS [r10_172_JUSTAS]
The “folding stability dG unfold” value of the first is higher: -0.646 ± 0.32 kcal/mol for the first, < -1 kcal/mol for the second.

First: SAGSTVEVLEERPLEDGSVLVRVRVDDAAPDGSPVAVVDVLVLPGGEAVMTFPDGTPVRLPLSELGLPPSAG [r5_137_JUSTAS]
Second: SAGGSAGGSAGPEIRVDDLEDGVVRITTVNVDPSTGAPVATTTTTLPRESLSPEVVALLSSAGGSAGGSAGG [r11_376_JUSTAS]
The “folding stability dG unfold” value of the first is higher: -0.319 ± 0.2 kcal/mol for the first, < -1 kcal/mol for the second.

Compared with “SAGSMTVSESTENGVRTTTVTLPSRPLTVTVTFPDGKVTATTTDPAAPEAATTTPLGTPAVETLIAELSSAG [r14_716_JUSTAS]”, “SAGGSAGGSASAPADETLTAELTSPESDERYTVLVTPEGMTAVDEAGRTTPLSPAVLVSVTAPSAGGSAGGS [r20_35_JUSTAS]” is higher in “folding stability dG unfold” value: -0.609 ± 0.3 kcal/mol for the first, 0.0934 ± 0.075 kcal/mol for the second.

Compared with “SAGGSAGGSAGKITIHMDPEGNYMVKTPGNERQFDSPEDADELADEFLLNGLPIEIHPHPSAGGSAGGSAGG [r17_35_TrROS]”, “SMKLKITIPLPGNNEINIEIEIKPYFDPNTKKLYFEANIKVTFTYYIPGFDKPFSFTSEFKFRFELSDDLSA [r9_140_TrMRF]” is higher in “folding stability dG unfold” value: < -1 kcal/mol for the first, > 6 kcal/mol for the second.

First: SETVTIEVEIEVKLPDGSTYRVRLTVEFDKETGKITLKMTVEYNGKTYEVELSEEEIKALLDELLKKLGLSA [r9_1136_TrROS_Hall]
Second: SAGGSAGGSAGGSGPEPKFTVEVDPEKDEVTFLVELEDKPLLLVVKDWPEDDPLLKNAFSAGGSAGGSAGGS [r4_328_TrMRF]
The “folding stability dG unfold” value of the first is higher: > 6 kcal/mol for the first, 0.0825 ± 0.29 kcal/mol for the second.

“SAGGSAGGSAGMTISLSDLTKKGDIEKAKEEVEEIKKKNPEPKVEKVSVPPEKNEIYKLESAGGSAGGSAGG [r11_365_JUSTAS]” and “SAGGMTKPTSSPSPLDPSTPPEEWIAAIEKELPPDWRIVEPRPRPGPRLVTVLAEDPNSGKRVILRASAGGS [r16_250_JUSTAS]” cannot be ordered by “folding stability dG unfold” value: < -1 kcal/mol for the first, < -1 kcal/mol for the second.

First: SAGSAKELAKEIADTIADEMQDRHPGFKPTEVEVKEIEVNPENGWVKINIEMRFPNGKPIWKPEITIPSAGG [r19_53_TrROS]
Second: SAGGMSKEEARKAIENPADATYTFTITTRPSTPTPSSTTTTVTAKVTDPDAFLDAVPEGHSVTVTASSAGGS [r16_116_JUSTAS]
The “folding stability dG unfold” value of the first is higher: -0.557 ± 0.25 kcal/mol for the first, < -1 kcal/mol for the second.

Going from “SAKLTPEEIEELAEKLAKELAEKEGIEKVEVKVEKKEDGKVTVEIRFEKNKKTIRIEFENGEVKIVEIESAG [r14_925_TrROS_Hall]” to “SAGGSAMPPEWQREVVLTPVEIDIPEPPEVEVVEYDPSTGTITISVPKSPLTLTYDALTGTVHTIGSAGGSA [r15_452_JUSTAS]”, the “folding stability dG unfold” value falls from 2.97 ± 0.72 kcal/mol to -0.873 ± 0.47 kcal/mol.
